Changes are numbered by the printed parent chain.

For data set [1], the target named is T1, OP (Artificial) (UniProt Q9XDM8).
T1 sequence: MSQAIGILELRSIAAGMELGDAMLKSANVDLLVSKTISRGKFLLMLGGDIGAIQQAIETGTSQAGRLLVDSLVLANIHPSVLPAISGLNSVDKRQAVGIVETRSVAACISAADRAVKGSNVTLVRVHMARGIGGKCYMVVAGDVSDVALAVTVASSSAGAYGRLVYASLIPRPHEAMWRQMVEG
The conditions noted are these: fluorescence quenching kinetics koff/kon.

The target of data set [2] is T2, OTR501 (Artificial) (UniProt Q9XDM8).
T2 sequence: T1 sequence with R39P
The conditions noted are these: fluorescence quenching kinetics koff/kon.

Data set [3] addresses T3, OTR502 (Artificial) (UniProt Q9XDM8).
T3 sequence: T1 sequence with R103W
The conditions noted are these: fluorescence quenching kinetics koff/kon.

Data set [4] has as its target T4, OTR503 (Artificial) (UniProt Q9XDM8).
T4 sequence: T1 sequence with R163L
The conditions noted are these: fluorescence quenching kinetics koff/kon.

For data set [5], the target named is T5, OP (Artificial, UniProt Q9XDM8 SEQ:1-184).
T5 chain: T1 sequence
Description: EMSA; 2:1 ssDNA to capsid. The conditions noted are these: tags: C-terminal His6; chain copies: 24 (self-assembled cage).

Data set [6] addresses T6, OTR101 (Artificial, UniProt Q9XDM8 SEQ:1-184).
T6 chain: T1 sequence with R11T, R66E, R103W, R130F, R163L
The data set can be described thus: EMSA; also no binding by fluorescence quenching. The conditions noted are these: tags: C-terminal His6; chain copies: 24 (inferred); label: Atto488 5'. Background: Mobility shift assays separate free from complexed probe on a gel.

In data set [7] the target is T7, OTR203 (Artificial, UniProt Q9XDM8 SEQ:1-184).
T7 chain: T1 sequence with R66E, R103W, R130F, R163L
Description: EMSA; also no binding by fluorescence quenching. The conditions noted are these: tags: C-terminal His6; chain copies: 24 (inferred); label: Atto488 5'.

The target in data set [8] is T8, OTR202 (Artificial, UniProt Q9XDM8 SEQ:1-184).
T8 chain: T1 sequence with R39P, R66E, R130F, R163L
The data set can be described thus: EMSA; also no binding by fluorescence quenching. The conditions noted are these: tags: C-terminal His6; chain copies: 24 (inferred); label: Atto488 5'.

Data set [9] has as its target T9, OTR201 (Artificial, UniProt Q9XDM8 SEQ:1-184).
T9 chain: T1 sequence with R11T, R66E, R103W, R163L
Description: EMSA; also no binding by fluorescence quenching. The conditions noted are these: tags: C-terminal His6; chain copies: 24 (inferred); label: Atto488 5'.

The target in data set [10] is T10, OTR502 (Artificial, UniProt Q9XDM8 SEQ:1-184).
T10 chain: T1 sequence with R103W
The data set can be described thus: fluorescence quenching kinetics koff/kon, PBS, room temp. The conditions noted are these: tags: C-terminal His6; chain copies: 24 (inferred); label: Atto488 5'.

Data set [11] has as its target T11, OTR402 (Artificial, UniProt Q9XDM8 SEQ:1-184).
T11 chain: T1 sequence with R39P, R130F
Described as above. The conditions noted are these: tags: C-terminal His6; chain copies: 24 (inferred); label: Atto488 5'.

Data set [12] concerns the target T12, OTR302 (Artificial, UniProt Q9XDM8 SEQ:1-184).
T12 chain: T1 sequence with R66E, R103W, R163L
Described as above. The conditions noted are these: tags: C-terminal His tag; chain copies: 24 (inferred); label: Atto488 5'.

In data set [13] the target is T13, OTR501 (Artificial, UniProt Q9XDM8 SEQ:1-184).
T13 chain: T1 sequence with R39P
Described as above. The conditions noted are these: tags: C-terminal His6; chain copies: 24 (inferred); label: Atto488 5'.

In data set [14] the target is T14, OTR301 (Artificial, UniProt Q9XDM8 SEQ:1-184).
T14 chain: T1 sequence with R11T, R39P, R66E
The description is as above. The conditions noted are these: tags: C-terminal His6; chain copies: 24 (inferred); label: Atto488 5'.

Data set [15] deals with T15, OTR401 (Artificial, UniProt Q9XDM8 SEQ:1-184).
T15 chain: T1 sequence with R66E, R163L
The data set is described as above. The conditions noted are these: tags: C-terminal His6; chain copies: 24 (inferred); label: Atto488 5'.

Data set [16] has as its target T16, OTR503 (Artificial, UniProt Q9XDM8 SEQ:1-184).
T16 chain: T1 sequence with R163L
The description is as above. The conditions noted are these: tags: C-terminal His6; chain copies: 24 (inferred); label: Atto488 5'.

The target of data set [17] is T17, O3-33 (Artificial, UniProt Q9XDM8 SEQ:1-184, R11T,R39P,R66E,R103W,R130F,R163L).
T17 sequence: T1 sequence with R11T, R39P, R66E, R103W, R130F, R163L
Description: EMSA; PBS, room temp; also no binding by fluorescence quenching. The conditions noted are these: tags: C-terminal His6; pET29b(+)-O3-33 (David Baker), PDB 3VCD; chain copies: 24 (self-assembled cage); label: Atto488 5'.

Data set [18] addresses T5, OP. Description: fluorescence quenching kinetics koff/kon, PBS, room temp; p321 gives (2.4±0.3)e-10. The conditions noted are these: tags: C-terminal His6; chain copies: 24 (self-assembled cage); label: Atto488 5'.
Data set [19] addresses T17, O3-33. The data set can be described thus: EMSA; 2 equiv. O3-33. The conditions noted are these: tags: C-terminal His6, pET29b(+)-O3-33 (David Baker), PDB 3VCD, chain copies: 24 (self-assembled cage).
For data set [20], the target named is T18, OP-NoHis6 (Artificial, UniProt Q9XDM8 SEQ:1-188).
T18 chain: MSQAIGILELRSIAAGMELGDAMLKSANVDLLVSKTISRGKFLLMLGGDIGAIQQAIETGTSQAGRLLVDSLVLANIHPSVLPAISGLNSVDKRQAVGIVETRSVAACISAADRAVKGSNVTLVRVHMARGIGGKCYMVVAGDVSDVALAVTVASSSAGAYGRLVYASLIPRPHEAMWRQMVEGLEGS
Description: EMSA; 1:1 molar ratio; siRNA encapsulation also by SEC. The conditions noted are these: tags: no His6 (GS C-terminus); chain copies: 24 (self-assembled cage, inferred); siRNA duplex with 2-nt 3' DNA overhangs.

Data set [21] deals with T5, OP. Description: EMSA; PBS, room temp; near complete binding at 0.5 equiv. cage, 1.97 guests per cage by SEC. The conditions noted are these: tags: C-terminal His6; chain copies: 24 (self-assembled cage); siRNA duplex with 2-nt 3' DNA overhangs.
Data set [22] deals with T5, OP. The data set can be described thus: EMSA; PBS, room temp; near complete binding at 0.5 equiv. cage, 1.98 guests per cage by SEC. The conditions noted are these: tags: C-terminal His6; chain copies: 24 (self-assembled cage).
Data set [23] has as its target T5, OP. Description: EMSA; 1:1 complex in PBS; released over 6 h by 26 uM tRNA at 37 C. The conditions noted are these: tags: C-terminal His6; chain copies: 24 (self-assembled cage); label: Atto488 5'.

With hpDNA (Atto488-hairpin DNA), the dissociation constant (Kd) (as a rule, the constant that tells how readily two partners part at equilibrium) in data set [1] came out at 1.21 nM; in data set [2], 0.39 nM; in data set [3], 0.684 nM; in data set [4], 0.184 nM.

For the molecule CGTGGCGAGCAGCAGCGC (ssDNA) [ssDNA1], the binding result in data set [5] was “binds”.

As for CCACGCTATTCAGACCGCTAATCG (ssDNA) [ssDNA8], in data set [5], the binding result is given as “binds”.

With TTAATTAAAGACTTCAAGCGG (ssDNA) [Atto488-ssDNA (A488-DNA)], the binding result in [6], in [7], in data set [8], in data set [9] and in [17] was “no binding” each time. In addition, the Kd in data set [10] came to 0.289 nM; in data set [11], 0.248 nM; in [12], 8.59 nM; in data set [13], 0.13 nM; in [14], 2.12 nM; in [15], 16.1 nM. Also, the Kd in data set [16] was 0.609 nM; in data set [18], 0.242 nM.

Consider GGTGATGCGATGCTGAAAAGCGC (ssDNA) [ssDNA4], for which the binding result in data set [5] was “binds”.

B1: dsRNA (GFP-siRNA-g/GFP-siRNA-p) (dsRNA)
RNA 1: GAACUUCAGGGUCAGCUUGGG
RNA 2: CAAGCUGACCCUGAAGUUCUU
modifications: last two 3' nucleotides deoxy on each strand
For B1, the results for the binding result in data set [19] (siRNA duplex with 2-nt 3' DNA overhangs), in data set [20] and in data set [21] were “no binding”, “binds” and “binds”, respectively.

With CGATTAGCGGTCTGAATAGCGTGG (ssDNA) [ssDNA6], the binding result in [5] is “binds”.

Turning to GCGATTCAGCAGGCGATTGAAACC (ssDNA) [ssDNA5], the binding result in data set [5] is given as “binds”.

B2: dsDNA (GFP-g/GFP-p) (dsDNA)
DNA 1: GAACTTCAGGGTCAGCTTGGG
DNA 2: CAAGCTGACCCTGAAGTTCTT
As to B2, the binding result in data set [19] is given as “no binding”; in data set [22], “binds”.

With GAAGGAGATATACATATGAGCCAGGC (ssDNA) [ssDNA9], the binding result in data set [5] is listed as “binds”.

As for CCTGGTGCGTGTGCACATGG (ssDNA) [ssDNA2], in data set [5], the binding result was “binds”.

B3: Atto488-dsDNA (A488-DNA/A488-DNA') (dsDNA)
DNA 1: TTAATTAAAGACTTCAAGCGG
DNA 2: GCTTGAAGTCTTTAATTAATT
For the molecule B3, the binding result in data set [23] was “binds”.

GGTTTCAATCGCCTGCTGAATCGC (ssDNA) [ssDNA7]: the binding result in data set [5] is listed as “binds”.

In the case of GTGCTCGAGACCTTCCACCATC (ssDNA) [ssDNA3], the binding result in data set [5] is reported as “binds”.
